Source: article PMC12730228, “Targeted NanoBiT Screening Identifies a Novel Interaction Between SNAPIN and Influenza A Virus M1 Protein” (Biology, 2025)

What was measured:
SmN-SNAPIN (human) = SmN-SNAPIN (human) (UniProt O95295); assay: split reporter (BiFC, NanoBiT)
SmN-SNAPIN = target: T1, SmN-SNAPIN (human, UniProt O95295 1-136); assay: split reporter (BiFC, NanoBiT); settings: partners not purified
T1 construct: also called SNAPIN-SmBiT; not shown: SmBiT, N-terminal, kept
T1 sequence (looked up): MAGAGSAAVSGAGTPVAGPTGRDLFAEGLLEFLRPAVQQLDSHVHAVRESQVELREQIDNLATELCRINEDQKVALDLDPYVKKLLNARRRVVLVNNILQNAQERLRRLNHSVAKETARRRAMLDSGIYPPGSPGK

Flag-M1 = target: T2, Flag-M1 (influenza A virus A/WSN/33 (H1N1), UniProt P05777 1-252); assay: pull-down; settings: both partners purified
T2 construct: also called Flag-tagged M1; M1 protein; not shown: Flag, N-terminal, kept
T2 sequence (P05777 whole entry): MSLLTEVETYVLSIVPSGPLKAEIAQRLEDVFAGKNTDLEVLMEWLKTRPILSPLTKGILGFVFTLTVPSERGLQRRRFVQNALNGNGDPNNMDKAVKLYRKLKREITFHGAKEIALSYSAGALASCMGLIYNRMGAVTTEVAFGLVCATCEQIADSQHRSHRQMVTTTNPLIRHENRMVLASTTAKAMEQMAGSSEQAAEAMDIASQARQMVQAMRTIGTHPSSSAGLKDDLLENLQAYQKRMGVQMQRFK

LgN-NS2 (natural protein)
fold signal increase relative to the negative control (SmN-SNAPIN (human)): 2.37 fold

B1: LgN-M2 (natural protein)
chain: MSLLTEVETPIRNEWGCRCNDSSDPLVIAANIIGILHLILWILDRLFFKCIYRRFKYGLKRGPSTEGVPESMREEYRKEQQNAVDVDDGHFVNIELE
notes: also called matrix protein 2; not shown: LgBiT, N-terminal, kept
fold signal increase relative to the negative control (SmN-SNAPIN): 8.62 fold

B2: GST-SNAPIN (natural protein, human, UniProt O95295 1-136, looked up)
chain: T1 sequence (looked up)
notes: also called GST-tagged SNAPIN
binding result (Flag-M1): binds
